Reference: publication PMC10786891, “Massively parallel profiling of RNA-targeting CRISPR-Cas13d”
Where a chain is given by its changes, count along the chain named. In names and notes the source's numbering stands.

B1: target 1 insG 3' of 9,insG 3' of 2 (mixed)
RNA 1: CACCCGUGCAAAAAUGCAGGGGUCUAAAACUGAGCGGAUAACCUCUCUAUGG
RNA 2: GGGAAUGGAUCCACAUCUACGAAUUCGUACCAUAGAGAGGUUAGUCCGCUCGACCGAGAUCGGAAGAGCACACGU
B2: target 1 insU 3' of 20,insG 3' of 7 (mixed)
RNA 1: B1 RNA 1
RNA 2: GGGAAUGGAUCCACAUCUACGAAUUCGUACCAUUAGAGAGGUUAUCGCGCUCACCGAGAUCGGAAGAGCACACGU
B3: target 1 C7G,U19A (mixed)
RNA 1: B1 RNA 1
RNA 2: GGGAAUGGAUCCACAUCUACGAAUUCGUACCAAAGAGAGGUUAUGCGCUCACCGAGAUCGGAAGAGCACACGU
B4: target 1 C2U,C22A (mixed)
RNA 1: B1 RNA 1
RNA 2: B3 RNA 2 with C30A, A33U, G45C, C50U
B5: target 1 C6A,U19C (mixed)
RNA 1: B1 RNA 1
RNA 2: B3 RNA 2 with A33C, G45C, C46A
B6: target 1 insU 3' of 21,insG 3' of 21 (mixed)
RNA 1: B1 RNA 1
RNA 2: GGGAAUGGAUCCACAUCUACGAAUUCGUACCUGAUAGAGAGGUUAUCCGCUCACCGAGAUCGGAAGAGCACACGU
B7: target 1 insA 3' of 12,insC 3' of 9 (mixed)
RNA 1: B1 RNA 1
RNA 2: B6 RNA 2 with U32A, G33U, U35G, A40G, G41A, G42U, U44A, A45C
B8: target 1 C2U,A16C (mixed)
RNA 1: B1 RNA 1
RNA 2: B3 RNA 2 with A33U, A36C, G45C, C50U
B9: target 1 insG 3' of 7,insA 3' of 6 (mixed)
RNA 1: B1 RNA 1
RNA 2: B1 RNA 2 with G44U, U45C, C46G, G48A, C49G, U50C, C51U, G52C
B10: target 1 insC 3' of 16,insC 3' of 13 (mixed)
RNA 1: B1 RNA 1
RNA 2: B6 RNA 2 with U32A, G33U, U35G, G37C, A38G, G39A, A40G, G41C
B11: target 1 complement block 2-9 (mixed)
RNA 1: B1 RNA 1
RNA 2: B3 RNA 2 with A33U, A43U, U44A, C46G, G47C, C48G, U49A, C50G
B12: target 1 insA 3' of 21,insA 3' of 15 (mixed)
RNA 1: B1 RNA 1
RNA 2: B2 RNA 2 with U33A, G40A, U42G, A44U, U45A, C46U, G47C
B13: target 1 insC 3' of 15,insA 3' of 4 (mixed)
RNA 1: B1 RNA 1
RNA 2: B1 RNA 2 with A38C, G39A, U41G, A43U, G44A, U50A, C51U, G52C
B14: target 1 C4A,C6U (mixed)
RNA 1: B1 RNA 1
RNA 2: B3 RNA 2 with A33U, G45C, C46U, C48A
B15: target 1 insG 3' of 16 (mixed)
RNA 1: B1 RNA 1
RNA 2: GGGAAUGGAUCCACAUCUACGAAUUCGUACCAUAGAGGAGGUUAUCCGCUCACCGAGAUCGGAAGAGCACACGU
B16: target 1 G12A,C22U (mixed)
RNA 1: B1 RNA 1
RNA 2: B3 RNA 2 with C30U, A33U, G40A, G45C
B17: target 1 insC 3' of 22,insG 3' of 10 (mixed)
RNA 1: B1 RNA 1
RNA 2: B2 RNA 2 with A32C, U33A, A44G, U45A, C46U, G47C
B18: target 1 insA 3' of 7,insG 3' of 7 (mixed)
RNA 1: B1 RNA 1
RNA 2: B1 RNA 2 with G44U, U45C, C46A, C47G, G48C, C49G, U50C, C51U, G52C
B19: target 1 insU 3' of 12,insG 3' of 8 (mixed)
RNA 1: B1 RNA 1
RNA 2: B1 RNA 2 with A43U, G44A, C46G, G48C, C49G, U50C, C51U, G52C
B20: target 1 G12A,G15C (mixed)
RNA 1: B1 RNA 1
RNA 2: B3 RNA 2 with A33U, G37C, G40A, G45C
B21: target 1 insA 3' of 15,insG 3' of 9 (mixed)
RNA 1: B1 RNA 1
RNA 2: B2 RNA 2 with U34A, A35G, G36A, A37G, G38A, U45G, C46U, G47C
B22: target 1 insA 3' of 10,insU 3' of 1 (mixed)
RNA 1: B1 RNA 1
RNA 2: B1 RNA 2 with G44A, G52A, A53U
B23: target 1 insG 3' of 18,insU 3' of 9 (mixed)
RNA 1: B1 RNA 1
RNA 2: B2 RNA 2 with U34A, A35G, C46U, G47C
B24: target 1 insC 3' of 20,insC 3' of 14 (mixed)
RNA 1: B1 RNA 1
RNA 2: B2 RNA 2 with U33C, G40C, U42G, A44U, U45A, C46U, G47C
B25: target 1 insA 3' of 15,insG 3' of 7 (mixed)
RNA 1: B1 RNA 1
RNA 2: B2 RNA 2 with U34A, A35G, G36A, A37G, G38A
B26: target 1 insA 3' of 10,insG 3' of 1 (mixed)
RNA 1: B1 RNA 1
RNA 2: B1 RNA 2 with G44A, G52A, A53G
B27: target 1 insG 3' of 7,insA 3' of 4 (mixed)
RNA 1: B1 RNA 1
RNA 2: B1 RNA 2 with G44U, U45C, C46G, U50A, C51U, G52C
B28: target 1 insG 3' of 21,insU 3' of 2 (mixed)
RNA 1: B1 RNA 1
RNA 2: B2 RNA 2 with A32G, U33A, G47C, C48G, G49C, C50U, U51C, C52U
B29: target 1 insA 3' of 10,insC 3' of 1 (mixed)
RNA 1: B1 RNA 1
RNA 2: B1 RNA 2 with G44A, G52A, A53C
B30: target 1 insA 3' of 10,insA 3' of 2 (mixed)
RNA 1: B1 RNA 1
RNA 2: B1 RNA 2 with G44A, G52A
B31: target 1 A1G,U11A (mixed)
RNA 1: B1 RNA 1
RNA 2: B3 RNA 2 with A33U, U41A, G45C, A51G
B32: target 1 C7G,A9C (mixed)
RNA 1: B1 RNA 1
RNA 2: B3 RNA 2 with A33U, A43C
B33: target 1 insG 3' of 19,insG 3' of 19 (mixed)
RNA 1: B1 RNA 1
RNA 2: B6 RNA 2 with U32A, G33U, A34G, U35G

Biological target: T1, EsCas13d, nuclease-dead (Eubacterium siraeum, UniProt B0MS50, R295A;H300A;R849A;H854A)
T1 sequence: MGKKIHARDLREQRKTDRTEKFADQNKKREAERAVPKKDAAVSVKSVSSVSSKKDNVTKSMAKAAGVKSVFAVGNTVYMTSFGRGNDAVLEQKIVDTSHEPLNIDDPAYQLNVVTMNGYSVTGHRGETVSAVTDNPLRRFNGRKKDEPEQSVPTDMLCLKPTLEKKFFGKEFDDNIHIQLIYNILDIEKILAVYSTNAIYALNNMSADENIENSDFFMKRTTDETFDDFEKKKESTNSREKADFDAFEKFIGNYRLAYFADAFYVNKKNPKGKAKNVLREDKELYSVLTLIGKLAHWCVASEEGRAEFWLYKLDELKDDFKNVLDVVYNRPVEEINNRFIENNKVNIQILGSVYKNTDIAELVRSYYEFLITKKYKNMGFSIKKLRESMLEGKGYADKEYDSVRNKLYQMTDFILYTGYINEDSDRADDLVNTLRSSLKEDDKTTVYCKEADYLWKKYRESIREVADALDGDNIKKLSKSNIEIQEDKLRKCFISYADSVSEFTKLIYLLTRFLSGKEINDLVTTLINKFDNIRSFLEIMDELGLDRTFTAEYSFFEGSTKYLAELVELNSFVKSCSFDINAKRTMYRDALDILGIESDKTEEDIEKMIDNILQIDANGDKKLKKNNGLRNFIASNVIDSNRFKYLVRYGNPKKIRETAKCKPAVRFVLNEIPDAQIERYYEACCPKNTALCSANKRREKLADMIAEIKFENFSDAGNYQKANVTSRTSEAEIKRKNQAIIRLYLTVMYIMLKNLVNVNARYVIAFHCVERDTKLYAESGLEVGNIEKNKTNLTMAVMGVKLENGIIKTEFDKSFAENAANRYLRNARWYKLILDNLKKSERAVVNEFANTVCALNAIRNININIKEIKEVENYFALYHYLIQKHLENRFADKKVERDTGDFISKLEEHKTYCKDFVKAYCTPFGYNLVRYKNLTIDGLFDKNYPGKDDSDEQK
Test: crRNA (strand 1, pre-loaded); Mg2+; 40 mM Tris-HCl pH 7.5, 150 mM NaCl, 6 mM MgCl2, 1 mM DTT, 0.1% Tween-20, 0.2 mg/ml BSA; 25 C; 10 min per concentration, then washed
Conditions: tags: His6-TwinStrep-SUMO cleaved; N-terminal SNAP kept (SNAP-Surface 488); label: 3' end held by stalled T7 RNA polymerase

| Binder | Kd |
| --- | --- |
| B1 | 17.2 ± 1 nM |
| B2 | 11.8 ± 0.6 nM |
| B3 | 56 ± 9 nM |
| B4 | 16.2 ± 1.2 nM |
| B5 | 21.3 ± 1.9 nM |
| B6 | 54 ± 6 nM |
| B7 | 40 ± 5 nM |
| B8 | 56 ± 4 nM |
| B9 | 9 ± 0.6 nM |
| B10 | 83 ± 27 nM |
| B11 | 7.29 ± 0.23 nM |
| B12 | 9.4 ± 0.6 nM |
| B13 | 6.5 ± 0.5 nM |
| B14 | 4.16 ± 0.27 nM |
| B15 | 12.1 ± 1.1 nM |
| B16 | 13 ± 1.1 nM |
| B17 | 34.4 ± 2.2 nM |

| Binder | Kd |
| --- | --- |
| B18 | 13 ± 0.9 nM |
| B19 | 9.41 ± 0.34 nM |
| B20 | 57 ± 15 nM |
| B21 | 8.7 ± 0.7 nM |
| B22 | 13.9 ± 0.8 nM |
| B23 | 71 ± 10 nM |
| B24 | 3.1 ± 0.5 nM |
| B25 | 6.15 ± 0.19 nM |
| B26 | 14.4 ± 1.2 nM |
| B27 | 5.49 ± 0.24 nM |
| B28 | 70 ± 9 nM |
| B29 | 12.6 ± 0.6 nM |
| B30 | 14 ± 0.8 nM |
| B31 | 34 ± 4 nM |
| B32 | 9.26 ± 0.33 nM |
| B33 | 56 ± 15 nM |
